# Data: the DeepSol protein solubility set
# Assay: soluble on expression in E. coli; label from the status in PepcDB or PDB records
row,Sequence,soluble on expression in E. coli
1,VNCVFITPDKMDGKRISYDYVVQQYEIQRLLQRRPLITLIDICKEITSGIRVKKEYYTDKNGYKIIAPGDIRNEVIYINELKVVQPEVVREKDIINNGDILITASGKSGQVIYVNEVLEGCVVTSDIIKITLRDRDKGIRLYKFLKSSIGQMLLNSIKIGILNKIFVEDVENLLIPEDFDTYQEDCSDDSTVYAEAEKLYRSAENIFYRVFDYKGEKKNLKHFYVTEYLDSHRLDPEYYSNFYTELYRVIHKNFDDVKWEELGELVEIKKADKPEISKNQKVKYFLLADIDPNFSIIKETHEDFYGNLSNRMRYIVRRGEIVTAKGGSATGTKGHATALITEKFDGLVTTDALYNLVPRRINPYYLLFLFKQPIILNQVNMFTKGTLYKLIQRNDFEKIKIPRLESSLEEQIVDKMMNYLSVLQNKF,not soluble
2,EERNDWHFNIGAMYEIENVEGYGEDMDGLAEPSVYFNAANGPWRIALAYYQEGPVDYSAGKRGTWFDRPELEVHYQFLENDDFSFGLTGGFRNYGYHYVDEPGKDTANMQRWKIAPDWDVKLTDDLRFNGWLSMYKFANDLNTTGYADTRVETETGLQYTFNETVALRVNYYLERGFNMDDSRNNGEFSTQEIRAYLPLTLGNHSVTPYTRIGLDRWSNWDWQDDIEREGHDFNRVGLFYGYDFQNGLSVSLEYAFEWQDHDEGDSDKFHYAGVGVNYSFHHHHHH,soluble
3,MVDFKMTKEGLVLLIKDYQNLEEVLNAISARITQMGGFFAKGDRISLMIENHNKHSQDIPRIVSHLRNLGLEVSQILVGSTVEGKENDLKVQSRTTVESTGKVIKRNIRSGQTVVHSGDVIVFGNVNKGAEILAGGSVVVFGKAQGNIRAGLNEGGQAVVAALDLQTSLIQIAGFITHSKGEENVPSIAHVKGNRIVIEPFDKVSFERSE,soluble
4,SANLCKRVVDLEKYIVKEAPPTVYYIPDFISEAEEEFLLQQVYRAPKPKWTQLSGRRLQNWGGLPNPKGMLAEKLPDWLLEYTEKISALGAFAGKTANHVLVNEYKPGEGIMPHEDGPLYHPTVTTITVGSHTLLDFYRPVCQAEPDAPQTEESRYMLSLLVQRKSLLILQDDMYKCYLHGIRGVCEDVLSEHVVNISSTGAQVGDTLPRSTRVSLTIRHVPKIIRANLFLGKK,soluble
5,MEKLVEWENCVSVIEAAILKHKYKQKVNKNIPSLLRVQAHIRKKMVAQ,soluble
6,GSHMASMTGGQQMGRGSEFKKYLETNGIKPKQFHKKELIFNQWDPQEYCIFLYDGITKLTSISENGTIMNLQYYKGAFVIMSGFIDTETSVGYYNLEVISEQATAYVIKINELKELLSKNLTHFFYVFQTLQKQVSYSLAKFNDFSINGKLGSICGQLLILTYVYGKETPDGIKITLDNLTMQELGYSSGIAHSSAVSRIISKLKQEKVIVYKNSCFYVQNLDYLKRYAPKLDEWFYLACPATWGKLN,soluble
7,KRSKVLSQASKNAEQFEDKFWSGTDLSQLYQKVKGRKDEIAGTEEIFFAGFTEFARLRKSNANSPAYIMEGTGRAMRVAVAREVDELETS,not soluble
8,EGPIDKLKTPEDVPNDPLPLISDFEWSTLDIDDNLQLDELYKLLYDNYVEDIDATFRFKYSHEFFQWALKPPGWRKDWHVGVRVKSTGKLVAFIAATPVTFKLNKSNKVIDSVEINFLCIHKKLRNKRLAPVLIKEITRRVNKQNIWQALYTGGSILPTPLTTCRYQHRPINWSKLHDVGFSHLPPNQTKSSMVASYTLPNNPKLKGLRPMTGKDVSTVLSLLYKYQERFDIVQLFTEEEFKHWMLGHDENSDSNVVKSYVVEDENGIITDYFSYYLLPFTVLDNAQHDELGIAYLFYYASDSFEKPNYKKRLNELITDALITSKKFGVDVFNCLTCQDNTYFLKDCKFGSGDGFLNYYLFNYRTFPMDGGIDKKTKEVVEDQTSGIGVVLL,soluble
9,KLAYKLGIGLECPFDKIWSLQTGVSFVSKGTNHTIVETDGISAQAKVNASYLEFPVMVAARFAMDRNTYILVAAGPYGAWGIGGKTKALGYSWSSSSTPDWNTGNVVEINTFGKDGLDLRRFDYGVAIGLSVEYRHYVIGVEGRLGLCKLQKELQGKNITGFVTAGYKF,not soluble
10,MFRAGEASKRPLPGPSPPRVRSVEVARGRAGYGFTLSGQAPCVLSCVMRGSPADFVGLRAGDQILAVNEINVKKASHEDVVKLIGKCSGVLHMVIAEGVGRFESCSSDEEGGLYEGKGWLKPKLDSKALGINRAERVVEEMQSGGIFNMIFENPSLCASNSEPLKLKQRSLSESAATRFDVGHESINNPNPNMLSKEEISKVIHDDSVFSIGLESHDDFALDASILNVAMIVGYLGSIELPSTSSNLESDSLQAIRGCMRRLRAEQKIHSLVTMKIMHDCVQLSTDKAGVVAEYPAEKLAFSAVCPDDRRFFGLVTMQTNDDGSLAQEEEGALRTSCHVFMVDPDLFNHKIHQGIARRFGFECTADPDTNGCLEFPASSLPVLQFISVLYRDMGELIEGMRARAFLDGDADAHQNNSTSSNSDSGIGNFHQEEKSNRVLVVDLGGSSSRHGPGGSAWDGVGGRGAQPWGAPWTGPFCPDPEGSPPFEAAHQTDRFWDLNKHLGPASPVEVPPASLRSSVPPSKRGTVGAGCGFNQRWLPVHVLREWQCGHTSDQDSYTDSTDGWSSINCGTLPPPMSKIPADRYRVEGSFAQPPLNAPKREWSRKAFGMQSIFGPHRNVRKTKEDKKGSKFGRGTGLTQPSQRTSARRSFGRSKRFSITRSLDDLESATVSDGELTGADLKDCVSNNSLSSNASLPSVQSCRRLRERRVASWAVSFERLLQDPVGVRYFSDFLRKEFSEENILFWQACEYFNHVPAHDKKELSYRAREIFSKFLCSKATTPVNIDSQAQLADDVLRAPHPDMFKEQQLQIFNLMKFDSYTRFLKSPLYQECILAEVEGRALPDSQQVPSSPASKHSLGSDHSSVSTPKKLSGKSKSGRSLNEELGDEDSEKKRKGAFFSWSRTRSTGRSQKKREHGDHADDALHANGGLCRRESQGSVSSAGSLDLSEACRTLAPEKDKATKHCCIHLPDGTSCVVAVKAGFSIKDILSGLCERHGINGAAADLFLVGGDKPLVLHQDSSILESRDLRLEKRTLFRLDLVPINRSVGLKAKPTKPVTEVLRPVVARYGLDLSGLLVRLSGEKEPLDLGAPISSLDGQRVVLEEKDPSRGKASADKQKGVPVKQNTAVNSSSRNHSATGEERTLGKSNSIKIKGENGKNARDPRLSKREESIAKIGKKKYQKINLDEAEEFFELISKAQSNRADDQRGLLRKEDLVLPEFLRLPPGSTELTLPTPAAVAKGFSKRSATGNGRESASQPGEQWEPVQESSDSPSTSPGSASSPPGPPGTTPPGQKSPSGPFCTPQSPVSLAQEGTAQIWKRQSQEVEAGGIQTVEDEHVAELTLMGEGDISSPNSTLLPPPSTPQEVPGPSRPGTSRF,soluble
11,MGSDKIHHHHHHMNPLETLWQLAANSVKADVLHLALEQQIFDRLEDVTAPEQLAESLGWQPEKTGFLLEILWSMQLLTRHHGGYRTASASSAVLCRSSPRFLGDAWRFRLTSLRQFGQGLADGMHQPLPAQLSELPRDAAWASAAEQQIAQEQRSITADLADQLLSRLPDFPQIRHVLDLGGGPGWVAITLALRHAQISGTIYDLPQTAAVAQRNINAAGLSARLSAQSGAFPSEKYDLIWSSSFLHFVEDIPAMLSTLYNTLTPDGSLVLAQAEIPEEADDAAPILPFYLPMQISGRHVTQEGQLTQWLVEAGFTSVETRRHQAFPMAPLNVLIARKHR,not soluble
12,MKTIVVLGAGYAGLKTVVALQKKLRKEVRIILIDRNPYHYETMRLYEVASGSAPYTRMSYELADVLDKNMNELVVDQVEKIDLKNKTVELTKHKPISYDYCVVGLGFVLSSMGIAGAQENALPMSNVKQAQAIRDHIESEMRAYVKDHDSQHLSIVICGAGFQAIELAGALAQARPCFAQTAGTDPEKITIKMIDGSPRLLPMFQGKLLDYAINLSALEHHHHHH,not soluble
13,MKRLIGILLCNLFILTACSASVDKTSNSTKTTDYKIENGETLKVPEKPKRVAVLTGFYVGDFIKLGIKPIAVSDITKDSSILKPYLKGVDYIGENDVERVAKAKPDLIVVDAMDKNIKKYQKIAPTIPYTYNKYNHKEILKEIGKLTNNEDKAKKWIEEWDDKTRKDKKEIQSKIGQATASVFEPDEKQIYIYNSTWGRGLDIVHDAFGMPMTKQYKDKLQEDKKGYASISKENISKYAGDYIFLSKPSYGKFDFEKTHTWQNIEAVKKGHVISYKAEDYWFTDPITLEHLRSKLKKEILNKK,not soluble
